{"source": "the nanobody polyreactivity screen of Harvey et al. (2022)", "data": [{"test": "yeast display, Sf9 membrane polyspecificity reagent, FACS + sequencing; frameworks hold sequencing errors", "how_it_was_run": "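Polyreactivity labels are assigned by the sorting gate from which each nanobody was recovered. The gates were low and high (top ~1%), set on anti-HA fluorescence for expression and streptavidin fluorescence for reagent binding. Before sorting, galactose-induced (36–48 hours) yeast display cells were stained for 1 hour at 4 °C with 10% biotinylated, detergent-solubilized Sf9 membrane reagent.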", "values": [{"sequence": "QVQLVESGGGLVQAGGSLRLSCAASGSIFYFNPMGWYRPAPGKERELVAAISWSGRTYYADSVKGRFTISRDNAKKTVYLQMNSLKPEDTAVYYCNAAYHYYGKYDYWGQGTQVTVSS", "polyreactivity (PSR sort gate)": "high polyreactivity"}, {"sequence": "QVQLVESGGGLVQAGGSLRLSCAASGSIFYGNAMGWYRPAPGKERELVAGITSGVGTNYADSVKGRFTISRDNAKNTVYLQMNSLKPEDTAVYYCNARYVYWIKGHDYWGQGTQVTVSS", "polyreactivity (PSR sort gate)": "high polyreactivity"}, {"sequence": "QVQLVESGGGLVQAGGSLRLSCAASGSIFYGNAMGWYRPAPGKERELVARISWSGSNTRYADSVKGRFTISRDNAKNTVYLQMNSLKPEDTAVYYCNARGFPGKFGYWGQGTQVTVSS", "polyreactivity (PSR sort gate)": "high polyreactivity"}, {"sequence": "QVQLVESGGGLVQAGGSLRLSCAASGSIFYGNAMGWYRQAPGKERELVASITYSGGTTNYADSVKGRFTISRDNAKNTVYLQMNCLKPEDTAVYYCNADIYPDRYGSTNYDFNYWGQGTQVTVSS", "polyreactivity (PSR sort gate)": "low polyreactivity"}, {"sequence": "QVQLVESGGGLVQAGGSLRLSCAASGSIFYGNTMGWYRQAPGKDRELVASITRPGDRTYYADSVKGRFTISRDNAKNTVYLQMNSLKPEDTAVYSCNAGLVLPPPGASIVYFDQMDYWGQGTQLTVSS", "polyreactivity (PSR sort gate)": "low polyreactivity"}, {"sequence": "QVQLVESGGGLVQAGGSLRLSCAASGSIFYGNTMGWYRQAPGKERELVAAITWSGDSTYYADSVKGRFTISRDIAKNTVYLQMISLKPEDTALYYCNADQTGVYYAGEGNHWGQGTQVSVSS", "polyreactivity (PSR sort gate)": "low polyreactivity"}, {"sequence": "QVQLVESGGGLVQAGGSLRLSCAASGSIFYGYAMGWYRQAPGKERELVAAIRWSDGSTYYADSVKGRFTISRDNAKNTVYLQMNSLKPEDTAVYYCNADLWVPSYLWGDYWGQGTQVTVSS", "polyreactivity (PSR sort gate)": "low polyreactivity"}, {"sequence": "QVQLVESGGGLVQAGGSLRLSCAASGSIFYGYAMGWYRQAPGKERELVASISKRGGSTYYADSVKGRFTISRDNAKNTVYLQMNSLKPEDTAVYYCAAEGVVYREYNYWGQGTQVTVSS", "polyreactivity (PSR sort gate)": "high polyreactivity"}, {"sequence": "QVQLVESGGGLVQAGGSLRLSCAASGSIFYHNAMGWYRQAPGKERELVAAISRSGGITSYADSVKGRFTISRDNAKNTVYLQMNSLKPEDTAVYYCAARSYYDGFYYWGQGTQVTVSS", "polyreactivity (PSR sort gate)": "high polyreactivity"}, {"sequence": "QVQLVESGGGLVQAGGSLRLSCAASGSIFYHNPMGWYRQAPGKERELVAAITSRGGRTTYADSVKGRFTISRDNAKNTVYLQMNSLKPEDTAVYYCNAVYTGYSYISRVDYWGQGTQVTVSS", "polyreactivity (PSR sort gate)": "low polyreactivity"}, {"sequence": "QVQLVESGGGLVQAGGSLRLSCAASGSIFYHYAMGWYRQAPGKVRELFAAISGSGGSTYYADSVKGRFTISRDNAKNTVYLQMNSLKPEDSAVYYCAADTSRYHYTRYFFDSDYWGQGTQVTVSS", "polyreactivity (PSR sort gate)": "low polyreactivity"}, {"sequence": "QVQLVESGGGLVQAGGSLRLSCAASGSIFYINAMGWYRQAPGKEREFVATITWSGDSTYYADSVKGRFTISRDNAKNTVYLQMNSLKPEDTAVYYCTARKQYQSYVDWEYDYWGQGTQVTVSS", "polyreactivity (PSR sort gate)": "low polyreactivity"}, {"sequence": "QVQLVESGGGLVQAGGSLRLSCAASGSIFYINAMGWYRQAPGKERELVAAITSGGTYYADSVKGRFTISRDTAKNTVYLQMNSLKPEDTAVYYCAADREGTPLFDYWGQGTQVTVSS", "polyreactivity (PSR sort gate)": "low polyreactivity"}, {"sequence": "QVQLVESGGGLVQAGGSLRLSCAASGSIFYINAMGWYRQAPGKERELVAAITWRGAGTYYADSVKGRFTISRDNAKNTVYLQMNSLKPEDTAVYYCAADDSPWRVPRNYWGQGTQVTVSS", "polyreactivity (PSR sort gate)": "low polyreactivity"}, {"sequence": "QVQLVESGGGLVQAGGSLRLSCAASGSIFYIYAMGWYRQAHGKERELVAAISSGGATYADSVKGRFTISRDNAKNTVYLQMNSLKPEDTAVYYFAVDRAFRAQNYHEYDYWGQGTQVTVSS", "polyreactivity (PSR sort gate)": "low polyreactivity"}, {"sequence": "QVQLVESGGGLVQAGGSLRLSCAASGSIFYIYAMGWYRQAPGKETELVASISRSGGSTYYADSVKGRFTISRDNAKNTVYLQMNSLKPEDTAVYYCAAVITFYRYPPGETYYYWGQGTQVTVSS", "polyreactivity (PSR sort gate)": "high polyreactivity"}, {"sequence": "QVQLVESGGGLVQAGGSLRLSCAASGSIFYKNAMGWYRQAPGKERELVAAITYSGGSTYYADSVKGRFTISRDNAKNTVYLQMNSLKPEDTAVYYCAADIGVYGERREEEYDYWGQGTQVTVSS", "polyreactivity (PSR sort gate)": "low polyreactivity"}, {"sequence": "QVQLVESGGGLVQAGGSLRLSCAASGSIFYKYMGWNIQAPGKERELVAAISWSGGRTYYADSVKGRFTISRDNAKNTVYLQMNSLKPEDTAVYYCNRVVLWRIGDKAFEYWGQGTQVTVSS", "polyreactivity (PSR sort gate)": "high polyreactivity"}, {"sequence": "QVQLVESGGGLVQAGGSLRLSCAASGSIFYKYVMGWYRQAPGKERELVAAISRGGGSTYYADSVKGRFTISRDNAKNTVYLQMNSLKPEDTAVYYCNAVGRPRYGHGFDHWGQGTQVTVSS", "polyreactivity (PSR sort gate)": "high polyreactivity"}, {"sequence": "QVQLVESGGGLVQAGGSLRLSCAASGSIFYLYAMGWYRQAPGKERELVASIRWSGGNTYYADSVKGRFTISRDNAKNTVYLQMNSLKPEDTAVYYCAARTSTHGSSYSIRRFGYWGQGTQVTVSS", "polyreactivity (PSR sort gate)": "high polyreactivity"}, {"sequence": "QVQLVESGGGLVQAGGSLRLSCAASGSIFYNTMGWYRQAPGKERELVAAISGTRASTYYADSVKGRFTISRDNAKNTVYLQMNSLKPEDTAVYYCAAVPAYPRDYDYWGQGTQVTVSS", "polyreactivity (PSR sort gate)": "low polyreactivity"}, {"sequence": "QVQLVESGGGLVQAGGSLRLSCAASGSIFYNYAMGWYRQAPGKERELVATITRSDGSTYYADSVKGRFTISRENAKNTVYLQMNSLKPEDTAVYYCAADSGSTSEYEYWGQGTQGTVSS", "polyreactivity (PSR sort gate)": "low polyreactivity"}, {"sequence": "QVQLVESGGGLVQAGGSLRLSCAASGSIFYPNAMGWYRQAPGKEREFVAAITWNGDSTYYADSVKGRFTISRDNAKNTVYLQMNSLKPEDTAVYYCNTDGQGIYSYNKDLSWISGYDYWGQGTQVTVSS", "polyreactivity (PSR sort gate)": "low polyreactivity"}, {"sequence": "QVQLVESGGGLVQAGGSLRLSCAASGSIFYPNAMGWYRQAPGKERELVAAITTGGSTNYADSVKGRFTISRDNAKNTVYLQMNSLKPEDTAVYYCNARHRYHSYTQPRWKYVYWGQGTQVTVSS", "polyreactivity (PSR sort gate)": "low polyreactivity"}, {"sequence": "QVQLVESGGGLVQAGGSLRLSCAASGSIFYPNAMGWYRQAPGKERELVADINTSGGDTYYADSVKGRFTISRDNAKNTVYLQMNSLKPEDTAVYYGAAEGYLYQYTSKPSDYWGQGTQVTVSS", "polyreactivity (PSR sort gate)": "low polyreactivity"}, {"sequence": "QVQLVESGGGLVQAGGSLRLSCAASGSIFYPYAMGWYRPAPGKERELVAGITGGGRTYYADSVKGRFTISRDNAKNTVYLQMNSLKPEDTAVFYCAAVDFVSYYIPFHYEYYWGQGTQVTVSS", "polyreactivity (PSR sort gate)": "low polyreactivity"}, {"sequence": "QVQLVESGGGLVQAGGSLRLSCAASGSIFYPYAMGWYRQAPGKEREFVAAITRSGGSTSYADSVKGRFTISRDNAKNTVYLHMNSLKPEDTAVYYCAAGYWYPDYDGFDYWGQGTQVTVSS", "polyreactivity (PSR sort gate)": "low polyreactivity"}, {"sequence": "QVQLVESGGGLVQAGGSLRLSCAASGSIFYPYAMGWYRQAPGKERELVAAIRRSGTTYYADSVKGRFTISRDNAKNTVYLQMNSLKPEDTAVYYCNKVRGQEPSNYDYWGQGTQVTVSS", "polyreactivity (PSR sort gate)": "low polyreactivity"}, {"sequence": "QVQLVESGGGLVQAGGSLRLSCAASGSIFYPYAMGWYRQAPGKERELVAAISYSGGITYYADSVKGRFTISRDNAKNTVYLQMNSLKPEDTAVYYCNKLIYFKPAGSHDYWGQGTQVTVSS", "polyreactivity (PSR sort gate)": "high polyreactivity"}, {"sequence": "QVQLVESGGGLVQAGGSLRLSCAASGSIFYPYAMGWYRQAPGKERELVAAITWSGGDTYYADSVKGRFTISRDKAKYTDYLQMNSLKPEDTAVYYSAAEWNVSPYDYWGQGTQVTVSS", "polyreactivity (PSR sort gate)": "low polyreactivity"}, {"sequence": "QVQLVESGGGLVQAGGSLRLSCAASGSIFYPYAMGWYRQAPGKERELVADINSDGSTTYADSVKGRFTISRDNAKNTVYLQMNSLKPEDTAVYYCAVDVSVNWPLLERYEYWGQGTQVTVSS", "polyreactivity (PSR sort gate)": "low polyreactivity"}, {"sequence": "QVQLVESGGGLVQAGGSLRLSCAASGSIFYPYAMGWYRQAPGKEREWVATITLSGGRTYYADSVKGRFTISRDNAKNTVYLQMNSLKPEDTAVYYCATDYAYGAFLYDYWGQGTQVTVSS", "polyreactivity (PSR sort gate)": "low polyreactivity"}, {"sequence": "QVQLVESGGGLVQAGGSLRLSCAASGSIFYPYVMGWYRQAPGKERELVAAITTSVGSTYYADSVKGRFTISRDNAKNTVYLQMNSLKPEDTAVYYCAAIYFGSRRPGRYNYWGQGTQVTVSS", "polyreactivity (PSR sort gate)": "high polyreactivity"}, {"sequence": "QVQLVESGGGLVQAGGSLRLSCAASGSIFYQNAMGWYRQAPGKEREFVAAIRSSGSSTYYADSVKGRFTISRDNAKNTVYLQMNSLKPEDTAVYYCAAPSSRGQGRNFDYWGQGTQVTVSS", "polyreactivity (PSR sort gate)": "high polyreactivity"}, {"sequence": "QVQLVESGGGLVQAGGSLRLSCAASGSIFYQYAMGWYRQAPGKEREMLAAIRYSGSSTYYADSVKGRFTISRDNAKNTVYLQMNSLKPEDTEVYYCGKTLRRRRGDRRYRVIEMDHWGQGTQVTVSS", "polyreactivity (PSR sort gate)": "low polyreactivity"}, {"sequence": "QVQLVESGGGLVQAGGSLRLSCAASGSIFYQYAMGWYRQARGKERELVAAITWDGSRTYYADSVKGRFTISRDNAKNTVYLQMNSLKPEDTAVYYCNANLAWRRYDGTYNYWGQGSQVTVSS", "polyreactivity (PSR sort gate)": "high polyreactivity"}, {"sequence": "QVQLVESGGGLVQAGGSLRLSCAASGSIFYQYGMGWYRQAPGKERELVAAITYDDDSTYYADSVKGRFTISRDNAKNTVYLQMNSLKPEDTAVYYCAAYYYKLEYDYWGQGTQVTVSS", "polyreactivity (PSR sort gate)": "high polyreactivity"}, {"sequence": "QVQLVESGGGLVQAGGSLRLSCAASGSIFYRNAMGWYRQAPGKERELVAAISSGTSTYYADSVKGRFTISRDNAKNTVYLQMNSLKPEDTAVYYCAKQYAFVPWWSRYHGELDYWGQGTQVTVSS", "polyreactivity (PSR sort gate)": "low polyreactivity"}, {"sequence": "QVQLVESGGGLVQAGGSLRLSCAASGSIFYRNAMGWYRQAPGKERELVAAISWRGGSTYYADSVKGRFTISRDNAKNTVFLQMNSLKPEDTAVYYCAAAQRVNHVWYDYWGQGTQVTVSS", "polyreactivity (PSR sort gate)": "low polyreactivity"}, {"sequence": "QVQLVESGGGLVQAGGSLRLSCAASGSIFYRNAMGWYRQAPGNERELVAAITSGASTYYADSVKGRFTISRDNAKNTVYLQMNSLKPEDTEVYYCAADSDSQWGMDYWGQGTQVTVSS", "polyreactivity (PSR sort gate)": "low polyreactivity"}]}]}
